# Laboratory results taken from PMC9482650, “Quantitative fragmentomics allow affinity mapping of interactomes” (Nature Communications, 2022).
# T1: NHERF1_1, O14745
# T1 sequence (O14745 9-104, limits assumed, looked up): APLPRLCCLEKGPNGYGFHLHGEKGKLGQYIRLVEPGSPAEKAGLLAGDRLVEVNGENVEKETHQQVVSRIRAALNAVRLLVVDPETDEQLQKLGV
# T2: PTPN13_5, Q12923
# T2 sequence (Q12923 1877-1975, limits assumed, looked up): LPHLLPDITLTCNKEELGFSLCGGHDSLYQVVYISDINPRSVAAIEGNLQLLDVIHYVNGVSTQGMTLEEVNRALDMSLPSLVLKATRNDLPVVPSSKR
# T3: MPDZ_11, O75970
# T3 sequence (O75970 1720-1817, limits assumed, looked up): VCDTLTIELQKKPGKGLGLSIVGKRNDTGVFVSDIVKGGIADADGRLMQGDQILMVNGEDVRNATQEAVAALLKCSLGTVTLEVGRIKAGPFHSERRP
# T4: SHROOM4, Q9ULL8
# T4 sequence (Q9ULL8 5-102, limits assumed, looked up): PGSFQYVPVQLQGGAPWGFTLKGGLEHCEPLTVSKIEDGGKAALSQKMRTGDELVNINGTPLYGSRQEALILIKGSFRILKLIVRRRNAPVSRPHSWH
# T5: INTU, Q9ULD6
# T5 sequence (Q9ULD6 180-273, limits assumed, looked up): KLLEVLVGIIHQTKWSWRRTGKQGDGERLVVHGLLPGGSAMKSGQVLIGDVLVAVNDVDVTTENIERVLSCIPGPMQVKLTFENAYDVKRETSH
# T6: SIPA1L3, O60292
# T6 sequence (O60292 961-1052, limits assumed, looked up): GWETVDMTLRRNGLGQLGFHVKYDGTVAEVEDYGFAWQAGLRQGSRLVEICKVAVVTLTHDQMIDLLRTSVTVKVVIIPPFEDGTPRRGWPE
# T7: TJP3_2, O95049
# T7 sequence (O95049 190-282, limits assumed, looked up): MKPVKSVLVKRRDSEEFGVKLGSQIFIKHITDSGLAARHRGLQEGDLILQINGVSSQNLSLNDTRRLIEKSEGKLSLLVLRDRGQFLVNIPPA
# T8: PDZD2_4, O15018
# T8 sequence (O15018 723-823, limits assumed, looked up): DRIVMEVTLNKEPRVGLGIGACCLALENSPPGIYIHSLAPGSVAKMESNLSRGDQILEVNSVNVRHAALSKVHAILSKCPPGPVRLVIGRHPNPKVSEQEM
# T9: PDZRN3_2, Q9UPQ7
# T9 sequence (Q9UPQ7 414-513, limits assumed, looked up): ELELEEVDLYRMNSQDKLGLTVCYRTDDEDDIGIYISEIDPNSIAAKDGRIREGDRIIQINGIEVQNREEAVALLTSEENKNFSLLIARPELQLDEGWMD
# T10: PDZD7_1, Q9H5P4
# T10 sequence (Q9H5P4 81-178, limits assumed, looked up): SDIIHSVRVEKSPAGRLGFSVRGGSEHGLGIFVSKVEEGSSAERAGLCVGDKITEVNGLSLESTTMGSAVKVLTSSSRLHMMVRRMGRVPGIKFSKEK
# T11: MPDZ_6, O75970
# T11 sequence (O75970 1003-1099, limits assumed, looked up): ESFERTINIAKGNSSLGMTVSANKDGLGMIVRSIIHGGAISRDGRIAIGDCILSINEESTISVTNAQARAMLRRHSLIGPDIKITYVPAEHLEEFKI
# T12: DVL1, O14640
# T12 sequence (O14640 246-333, limits assumed, looked up): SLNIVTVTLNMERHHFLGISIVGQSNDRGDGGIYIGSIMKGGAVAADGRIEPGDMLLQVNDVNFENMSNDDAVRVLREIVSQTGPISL
# How the values were obtained:
# Experiment in all cases: holdup assay
# Design in all cases: key: below the threshold = too weak to quantify, mostly under pKd 3.1 to 4
# Settings in all cases: plain residues with an end cap or a label only (N-terminal biotin on a linker: ttds)
# [1] = biological target: NHERF4_3, Q86UT5
# [2] = biological target: PDZD9, Q8IXQ8
# [3] = biological target: MAGI3_4, Q5TCQ9
# [4] = biological target: T1, NHERF1_1, O14745
# [5] = biological target: T2, PTPN13_5, Q12923
# [6] = biological target: AHNAK2, Q8IVF2
# [7] = biological target: MAGI1_3, Q96QZ7
# [8] = biological target: TJP1_1, Q07157
# [9] = biological target: MAGI1_5, Q96QZ7
# [10] = biological target: T3, MPDZ_11, O75970
# [11] = biological target: T4, SHROOM4, Q9ULL8
# [12] = biological target: T5, INTU, Q9ULD6
# [13] = biological target: RGS3, P49796-9
# [14] = biological target: T6, SIPA1L3, O60292
# [15] = biological target: MAGI1_4, Q96QZ7
# [16] = biological target: PDLIM4, P50479
# [17] = biological target: T7, TJP3_2, O95049
# [18] = biological target: PARD3_1, Q8TEW0
# [19] = biological target: T8, PDZD2_4, O15018
# [20] = biological target: T9, PDZRN3_2, Q9UPQ7
# [21] = biological target: T10, PDZD7_1, Q9H5P4
# [22] = biological target: RIMS1, Q86UR5
# [23] = biological target: T11, MPDZ_6, O75970
# [24] = biological target: MAGI3_3, Q5TCQ9
# [25] = biological target: IL16_2, Q14005
# [26] = biological target: T12, DVL1, O14640
# Chain of RGS3, P49796-9 (P49796 other isoform, or with tags, fused parts or gaps): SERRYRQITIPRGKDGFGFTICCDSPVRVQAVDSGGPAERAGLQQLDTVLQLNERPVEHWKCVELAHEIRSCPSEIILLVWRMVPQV
# Chain of MAGI3_4, Q5TCQ9 (Q5TCQ9 716-815): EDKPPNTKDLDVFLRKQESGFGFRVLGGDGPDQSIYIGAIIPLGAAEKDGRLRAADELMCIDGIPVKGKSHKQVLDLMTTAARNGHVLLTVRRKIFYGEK
# Chain of MAGI3_3, Q5TCQ9 (Q5TCQ9 572-655): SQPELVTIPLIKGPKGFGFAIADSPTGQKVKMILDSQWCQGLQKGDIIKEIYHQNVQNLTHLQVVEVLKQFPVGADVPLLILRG
# Chain of RIMS1, Q86UR5 (Q86UR5 584-692): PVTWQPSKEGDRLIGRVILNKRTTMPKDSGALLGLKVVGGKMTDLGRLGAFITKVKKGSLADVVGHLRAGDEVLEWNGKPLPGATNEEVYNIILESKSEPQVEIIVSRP
# Chain of MAGI1_4, Q96QZ7 (Q96QZ7 other isoform, or with tags, fused parts or gaps): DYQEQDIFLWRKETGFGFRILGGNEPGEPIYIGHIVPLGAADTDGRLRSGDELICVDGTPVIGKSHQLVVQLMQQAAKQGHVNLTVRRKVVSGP
# Chain of IL16_2, Q14005 (Q14005 350-450): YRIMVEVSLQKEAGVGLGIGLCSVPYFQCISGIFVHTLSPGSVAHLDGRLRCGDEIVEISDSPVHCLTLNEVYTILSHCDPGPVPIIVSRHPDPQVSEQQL
# Chain of AHNAK2, Q8IVF2 (Q8IVF2 108-193): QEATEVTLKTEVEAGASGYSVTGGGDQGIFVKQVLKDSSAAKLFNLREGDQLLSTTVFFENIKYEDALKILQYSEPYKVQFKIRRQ
# Chain of TJP1_1, Q07157 (Q07157 18-120): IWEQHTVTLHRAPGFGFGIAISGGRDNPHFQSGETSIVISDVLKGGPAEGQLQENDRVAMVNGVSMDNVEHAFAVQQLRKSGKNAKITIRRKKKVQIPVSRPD
# Chain of MAGI1_5, Q96QZ7 (Q96QZ7 986-1098): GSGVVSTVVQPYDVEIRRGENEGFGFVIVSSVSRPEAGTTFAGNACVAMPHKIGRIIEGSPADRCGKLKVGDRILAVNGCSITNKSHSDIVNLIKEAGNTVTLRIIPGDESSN
# Chain of MAGI1_3, Q96QZ7 (Q96QZ7 638-725): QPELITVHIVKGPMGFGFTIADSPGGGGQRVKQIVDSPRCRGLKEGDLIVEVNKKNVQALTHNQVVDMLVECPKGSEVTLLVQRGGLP
# Chain of PDLIM4, P50479 (P50479 1-83): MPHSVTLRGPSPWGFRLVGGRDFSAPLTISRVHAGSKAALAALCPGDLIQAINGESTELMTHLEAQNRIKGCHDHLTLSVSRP
# Chain of PDZD9, Q8IXQ8 (Q8IXQ8 23-120): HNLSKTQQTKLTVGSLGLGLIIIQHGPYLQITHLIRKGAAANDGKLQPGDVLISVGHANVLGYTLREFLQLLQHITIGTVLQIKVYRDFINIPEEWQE
# Chain of PARD3_1, Q8TEW0 (Q8TEW0 264-372): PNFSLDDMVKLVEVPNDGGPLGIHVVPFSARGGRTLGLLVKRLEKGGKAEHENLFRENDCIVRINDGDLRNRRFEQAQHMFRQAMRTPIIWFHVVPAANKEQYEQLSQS
# Chain of NHERF4_3, Q86UT5 (Q86UT5 325-412): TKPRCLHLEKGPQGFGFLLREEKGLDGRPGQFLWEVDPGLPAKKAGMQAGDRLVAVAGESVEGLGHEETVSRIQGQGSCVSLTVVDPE
binder,measurement,setting,value
"PSRDRKETSI [RALBP1, Q15311]",pKd,[1],below the threshold
same,pKd,[2],below the threshold
same,pKd,[3],below the threshold
same,pKd,[4],below the threshold
same,pKd,[5],below the threshold
same,pKd,[6],below the threshold
same,pKd,[7],below the threshold
same,pKd,[8],below the threshold
same,pKd,[9],below the threshold
same,pKd,[10],below the threshold
same,pKd,[11],below the threshold
same,pKd,[12],below the threshold
same,pKd,[13],below the threshold
same,pKd,[14],below the threshold
same,pKd,[15],below the threshold
same,pKd,[16],below the threshold
same,pKd,[17],below the threshold
same,pKd,[18],below the threshold
same,pKd,[19],below the threshold
same,pKd,[20],below the threshold
same,pKd,[21],below the threshold
same,pKd,[22],below the threshold
same,pKd,[23],below the threshold
same,pKd,[24],below the threshold
same,pKd,[25],below the threshold
same,pKd,[26],below the threshold
"KLVIKTETTV [RASSF6, Q6ZTQ3]",pKd,[1],below the threshold
same,pKd,[2],below the threshold
same,pKd,[3],below the threshold
same,pKd,[4],below the threshold
same,pKd,[5],below the threshold
same,pKd,[6],below the threshold
same,pKd,[7],4.32
same,pKd,[8],below the threshold
same,pKd,[9],4.23
same,pKd,[10],below the threshold
same,pKd,[11],below the threshold
same,pKd,[12],below the threshold
same,pKd,[13],below the threshold
same,pKd,[14],below the threshold
same,pKd,[15],below the threshold
same,pKd,[16],4.09
same,pKd,[17],below the threshold
same,pKd,[18],below the threshold
same,pKd,[19],below the threshold
same,pKd,[20],below the threshold
same,pKd,[21],below the threshold
same,pKd,[22],below the threshold
same,pKd,[23],below the threshold
same,pKd,[24],below the threshold
same,pKd,[25],4.38
same,pKd,[26],below the threshold
"SHSSKGETAV [FZD7, O75084]",pKd,[1],below the threshold
same,pKd,[2],below the threshold
same,pKd,[3],below the threshold
same,pKd,[4],below the threshold
same,pKd,[5],below the threshold
same,pKd,[6],4.41
same,pKd,[7],below the threshold
same,pKd,[8],below the threshold
same,pKd,[9],below the threshold
same,pKd,[10],below the threshold
same,pKd,[11],below the threshold
same,pKd,[12],below the threshold
same,pKd,[13],below the threshold
same,pKd,[14],below the threshold
same,pKd,[15],below the threshold
same,pKd,[16],below the threshold
same,pKd,[17],below the threshold
same,pKd,[18],below the threshold
same,pKd,[19],below the threshold
same,pKd,[20],below the threshold
same,pKd,[21],below the threshold
same,pKd,[22],below the threshold
same,pKd,[23],below the threshold
same,pKd,[24],4.54
same,pKd,[25],below the threshold
same,pKd,[26],below the threshold
